Measured values published in patent US20020002269A1, “ARTEMIN, A NEUROTROPHIC FACTOR” (priority 1998, published 2002).

Key:
[1] = tested on: trigeminal ganglion (TG) neurons; assay: Survival of cultured trigeminal ganglion neurons; assay type: cell-based, rat; conditions: 50 ng/ml, FIG. 7C; for survival of TG sensory neurons: 3 days in vitro
Description: Each GDNF ligand family member consisted of the human mature amino acid sequence and was produced by standard recombinant DNA methods. Recombinant GDNF, neurturin and persephin were obtained from Genentech while recombinant artemin was produced as described in Example 3.
The cultures were performed using standard methods described elsewhere (Kotzbauer et al., Neuron 12:763-773, 1994; Kotzbauer et al., Nature 384:467-470, 1996; Milbrandt et al., Neuron 20:245-253, 1998). In brief, for SCG neurons, after dissection and dissociation, neurons were plated on collagen-coated 24-well tissue culture plates and maintained in NGF-containing medium (AM50) for 5 days, after which they were either kept in AM50 or switched to medium containing neutralizing anti-NGF antibodies plus GDNF, neurturin, persephin, artemin, (50 ng/ml where not noted otherwise), or no growth factors. Cultures were maintained for 3 days, after which they were fixed in 4% paraformaldehyde and stained with toluidine blue, and surviving neurons were counted. For nodose ganglion and dorsal root ganglion neuron cultures, dissociated neurons were plated directly into NGF (for dorsal root ganglia), or BDNF (for nodose ganglia, 100 ng/ml) or one of the GDNF ligands in serum-containing medium (AM50 with anti-NGF antibodies), and cells surviving after 3 days in culture were counted as above. Trigeminal ganglia were dissected, dissociated, and plated directly into medium containing NGF or the indicated GDNF ligands, and the number of surviving cells was assessed after 3 days in vitro. For all culture systems, 2-3 independent experiments were performed.

RET = biological target: T1, RET (Rattus norvegicus, UniProt G3V9H8); assay: Western blot of RET phosphorylation and MAP kinase activation in SCG neurons; assay type: cell-based; conditions: 50 ng/ml for 20 minutes, FIG. 9A
T1 construct: endogenous in cells
Description: In brief, SCG neurons were dissected from postnatal day 1 (P1) rats and maintained in NGF-containing medium for 5 days, after which they were deprived of NGF by switching to NGF-free medium in the presence of anti-NGF antibodies. After 2 hours without NGF, neurons were switched to medium containing NGF, GDNF or artemin at 50 ng/ml for 20 minutes. Cells were washed in cold PBS, and collected in immunoprecipitation buffer (1 mM EDTA/1 mM EGTA/0.2 mM NaVO3/1 mM Pefabloc/1 uM pepstatin A/10 ug/ml leupeptin/2 ug/ml aprotinin/1% Triton X-100/0.5% Nonidet P-40/150 mM NaCl in 10 mM Tris, pH 7.4). The lysates were incubated with 30 μl agarose-conjugated anti-phosphotyrosine antibodies (Calbiochem) at 4° C. for 1 hr. Beads were then washed three times with immunoprecipitation buffer, resuspended in SDS sample buffer, and boiled for 5 min. Samples were separated using SDS-PAGE, and transferred to nitrocellulose membranes. Membranes were blocked for 1 hr at 25° C. in TBS containing 5% dry milk, incubated overnight 4° C. with a 1:300 dilution of anti-Ret antibody (C-19; Santa Cruz), then washed (3× in TBS containing 0.1% Tween-20) and incubated in a 1:10,000 dilution of anti-rabbit antibodies conjugated to HRP (Jackson Immunoresearch). Membranes were washed 3×, incubated with SuperSignal ULTRA (Pierce) for 5 minutes, then exposed to film. For MAP kinase (MAPK) assays, a portion of the total lysate wars removed before immunoprecipitation, separated by SDS-PAGE, and immunoblotted using an anti-phospho-MAP-kinase antibody (New England Biolabs).

GFRα1-Fc = assay: Direct binding of soluble GFRα1-Fc receptor body to plate-coated ligand; conditions: ligand coated at 325 ng/ml, absence of RET, FIG. 9C
Description: To investigate which if any of the known coreceptor(s) artemin can utilize to activate RET, its ability to directly bind to soluble Fc-fusion forms of GFRα1, GFRα2, or GFRα3 was assessed. GFRα1-Fc, GFRα2-Fc and GFRα3-Fc fusion proteins were obtained from R&D Systems. Binding assays were performed similarly to assays previously described (Sanicola et al., Proc. Natl. Acad. Sci., USA 94:6238-6243, 1997). Recombinant GDNF, neurturin, artemin, persephin, or purified bovine serum albumin (BSA; Pierce) were coated to Nunc-Immuno MaxiSorp microtiter plates at 325 ng/ml in TBS (10 mM Tris-HCl pH 7.5, 150 mM NaCl) for 1 hour at 25° C. Plates were washed (3× in TBS/0.03% Tween-20), and then blocked (blocking solution: TBS/1% BSA) for 1 hr at 25° C. Receptor bodies diluted in blocking solution were added and incubated for 2 hr at 25° C., washed 5X, then incubated with 1:10,000 dilution of HRP-conjugated anti-human Fc antibodies in blocking solution (Jackson Immunoresearch) for 45 minutes at 25° C. Finally, wells were washed 5× and the presence of HRP was assayed by addition of the chromogenic substrate 3,3, 5,5-tetramethylbenzidine for 5 min. The reaction was stopped by adding an equal volume of 0.5M H2SO4, and color was measured in a plate reader at 450 nm. Non-specific binding of receptor bodies to the plates was measured in BSA coated wells, and this binding was subtracted from all other measurements.

T1 sequence (G3V9H8 24-1115): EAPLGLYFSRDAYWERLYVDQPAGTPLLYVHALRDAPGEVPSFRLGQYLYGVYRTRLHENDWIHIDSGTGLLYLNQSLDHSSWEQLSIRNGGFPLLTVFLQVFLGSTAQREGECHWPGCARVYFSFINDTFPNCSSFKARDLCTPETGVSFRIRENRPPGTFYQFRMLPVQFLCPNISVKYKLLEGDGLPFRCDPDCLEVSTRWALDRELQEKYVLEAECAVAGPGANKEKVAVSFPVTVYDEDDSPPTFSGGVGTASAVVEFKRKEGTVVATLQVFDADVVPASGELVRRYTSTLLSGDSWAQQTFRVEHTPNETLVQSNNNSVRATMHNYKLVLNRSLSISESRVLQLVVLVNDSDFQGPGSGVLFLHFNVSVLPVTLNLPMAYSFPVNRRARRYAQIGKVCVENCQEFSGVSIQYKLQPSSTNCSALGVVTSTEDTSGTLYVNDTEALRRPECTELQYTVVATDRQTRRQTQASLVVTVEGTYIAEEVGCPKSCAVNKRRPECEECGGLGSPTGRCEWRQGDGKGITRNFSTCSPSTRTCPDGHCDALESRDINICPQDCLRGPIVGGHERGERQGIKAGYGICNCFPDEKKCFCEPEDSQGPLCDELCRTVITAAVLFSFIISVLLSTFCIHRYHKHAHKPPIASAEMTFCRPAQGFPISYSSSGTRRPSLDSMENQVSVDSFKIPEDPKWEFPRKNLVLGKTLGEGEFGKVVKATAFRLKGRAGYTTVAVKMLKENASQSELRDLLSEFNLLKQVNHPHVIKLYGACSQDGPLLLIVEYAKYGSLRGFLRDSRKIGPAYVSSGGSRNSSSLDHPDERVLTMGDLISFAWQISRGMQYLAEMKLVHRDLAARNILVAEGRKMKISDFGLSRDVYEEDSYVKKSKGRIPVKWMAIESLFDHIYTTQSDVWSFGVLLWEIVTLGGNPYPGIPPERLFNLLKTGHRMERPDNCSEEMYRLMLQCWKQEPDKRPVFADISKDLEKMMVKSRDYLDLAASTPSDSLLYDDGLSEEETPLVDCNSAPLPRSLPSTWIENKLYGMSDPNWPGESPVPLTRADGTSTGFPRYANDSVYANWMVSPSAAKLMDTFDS

Row | Molecule | survival of TG sensory neurons [1] | number of TG neurons supported compared with GDNF or neurturin [1] | number of TG neurons supported compared with NGF [1] | downstream signaling (activation of the MAP kinase pathway) in SCG neurons (RET) | tyrosine-phosphorylation of RET in SCG neurons (RET) | direct binding of GFRα1-Fc (GFRα1-Fc)
1 | artemin: recombinant mature human artemin (FIG. 3A, SEQ ID NO:3) with 8-histidine tag, produced in E. coli; GDNF family neurotrophic factor | supported the survival of a subset of sensory neurons | supported a larger number of neurons than GDNF or neurturin | a greater number (TG) | effective in eliciting downstream signaling | induced tyrosine-phosphorylation of RET | not to persephin or artemin
2 | GDNF: recombinant human mature GDNF obtained from Genentech (protein, UniProt P39905 78-211, looked up) Glial cell line-derived …: SPDKQMAVLPRRERNRQAAAANPENSRGKGRRGQRGKNRGCVLTAIHLNVTDLGLGYETKEELIFRYCSGSCDAAETTYDKILKNLSRNRRLVSDKVGQACCRPIAFDDDLSFLDDNLVYHILRKHSAKRCGCI | supported the survival of a subset of sensory neurons | – | – | – | induced tyrosine-phosphorylation of RET | able to bind to both GDNF and neurturin with similar affinity
